T1: recombinant human Ang2 (Biolegend) (human, UniProt O15123 19-496, limits assumed)
T1 construct: Bought reagent; also called angiopoietin-2
T1 sequence (looked up): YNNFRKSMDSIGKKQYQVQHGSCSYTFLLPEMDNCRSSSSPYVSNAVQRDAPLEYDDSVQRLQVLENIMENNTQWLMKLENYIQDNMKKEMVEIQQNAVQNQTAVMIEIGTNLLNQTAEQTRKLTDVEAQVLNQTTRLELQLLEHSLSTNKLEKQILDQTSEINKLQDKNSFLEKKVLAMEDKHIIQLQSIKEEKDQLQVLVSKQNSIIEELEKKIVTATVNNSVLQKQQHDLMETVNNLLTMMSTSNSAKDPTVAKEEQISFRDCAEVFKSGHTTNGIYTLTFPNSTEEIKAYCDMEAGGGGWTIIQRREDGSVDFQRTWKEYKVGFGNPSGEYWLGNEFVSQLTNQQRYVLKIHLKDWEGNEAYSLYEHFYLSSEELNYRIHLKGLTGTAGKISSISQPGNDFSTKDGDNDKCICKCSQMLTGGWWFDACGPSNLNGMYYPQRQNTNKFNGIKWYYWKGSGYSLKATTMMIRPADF


Target: T1, recombinant human Ang2 (Biolegend)
Experiment: Tie2-Ang2 blocking ELISA
Method: 96-well assay plates were coated with 0.5 ug/ml of recombinant human Ang2 (Biolegend) in PBS at 4° C. overnight, then blocked with 1% BSA/PBS for 1 hour at room temperature. […] After washing with Wash Buffer, Streptavidin-HRP was added to the plate at 1:200 and incubated for 30 minutes at room temperature.

Row | Binder | binding result
1 | Bi-T0Z (Fc fusion) ESKYGPPCPPCPAPEFLGGPSVFLFPPKPKDTLMISRTPEVTCVVVDVSQEDPEVQFNWYVDGVEVHNAKTKPREEQFNSTYRVVSVLTVLHQDWLNGKEYKCKVSNKGLPSSIEKTISKAKGQPREPQVYTLPPSQEEMGGAQQEECEWDPWTCEHMGSGSATGGSGSTASSGSGSATHQEECEWDPWTCEHMGGTKNQVSLTCLVKGFYPSDIAVEWESNGQPENNYKTTPPVLDSDGSFFLYSRLTVDKSRWQEGNVFSCSVMHEALHNHYTQKSLSLSLGKGGGGSGGGGSGGGGSSDTGRPFVEMYSEIPEIIHMTEGRELVIPCRVTSPNITVTLKKFPLDTLIPDGKRIIWDSRKGFIISNATYKEIGLLTCEATVNGHLYKTNYLTHRQTNTIIDVVLSPSHGIELSVGEKLVLNCTARTELNVGIDFNWEYPSSKHQHKKLVNRDLKTQSGSEMKKFLSTLTIDGVTRSDQGLYTCAASSGLMTKKNSTFVRVHEK | binds
2 | GS01-A (other, Trispecific PD-1/VEGF/Ang2 antagonist on an IgG4 Fc; also called trispecific construct GS01-A) heavy: QVQLVQSGAEVKKPGASVKVSCKASGYTFTSYYIHWVRQAPGQGLEWMGWIFPGSGNSKYNENFKGRVTLTADTSTSTVYMELSSLRSEDTAVYYCASETYDYGDYWGQGTLVTVSSASTKGPSVFPLAPCSRSTSESTAALGCLVKDYFPEPVTVSWNSGALTSGVHTFPAVLQSSGLYSLSSVVTVPSSSLGTKTYTCNVDHKPSNTKVDKRVESKYGPPCPPCPAPEFLGGPSVFLFPPKPKDTLMISRTPEVTCVVVDVSQEDPEVQFNWYVDGVEVHNAKTKPREEQFNSTYRVVSVLTVLHQDWLNGKEYKCKVSNKGLPSSIEKTISKAKGQPREPQVYTLPPSQEEMGGAQTNFMPMDDLEQRLYEQFILQQGGGGSGGGGSGGGGSGGGGSTNFMPMDDLEQRLYEQFILQQGLETKNQVSLTCLVKGFYPSDIAVEWESNGQPENNYKTTPPVLDSDGSFFLYSRLTVDKSRWQEGNVFSCSVMHEALHNHYTQKSLSLSLGKGGGGSGGGGSGGGGSGGGGSEVQLVESGGGLVQPGGSLRLSCAASGFTISDYWIHWVRQAPGKGLEWVAGITPAGGYTYYADSVKGRFTISADTSKNTAYLQMNSLRAEDTAVYYCARFVFFLPYAMDYWGQGTLVTVSSGGGGSGGGGSGGGGSGGGGSDIQMTQSPSSLSASVGDRVTITCRASQDVSTAVAWYQQKPGKAPKLLIYSASFLYSGVPSRFSGSGSGTDFTLTISSLQPEDFATYYCQQGYGNPFTFGQGTKVEIK light: DIQMTQSPSFLSASVGDRVTITCKASQNVGTNVAWYQQKPGKAPKALIYSASYRYSGVPSRFSGSGSGTEFTLTISSLQPEDFATYYCQQYYSYPYTFGQGTKLEIKRTVAAPSVFIFPPSDEQLKSGTASVVCLLNNFYPREAKVQWKVDNALQSGNSQESVTEQDSKDSTYSLSSTLTLSKADYEKHKVYACEVTHQGLSSPVTKSFNRGEC | binds
3 | GS01-T (other, Trispecific PD-1/VEGF/Ang1/Ang2 antagonist on an IgG4 Fc; also called trispecific construct GS01-T) heavy: QVQLVQSGAEVKKPGASVKVSCKASGYTFTSYYIHWVRQAPGQGLEWMGWIFPGSGNSKYNENFKGRVTLTADTSTSTVYMELSSLRSEDTAVYYCASETYDYGDYWGQGTLVTVSSASTKGPSVFPLAPCSRSTSESTAALGCLVKDYFPEPVTVSWNSGALTSGVHTFPAVLQSSGLYSLSSVVTVPSSSLGTKTYTCNVDHKPSNTKVDKRVESKYGPPCPPCPAPEFLGGPSVFLFPPKPKDTLMISRTPEVTCVVVDVSQEDPEVQFNWYVDGVEVHNAKTKPREEQFNSTYRVVSVLTVLHQDWLNGKEYKCKVSNKGLPSSIEKTISKAKGQPREPQVYTLPPSQEEMGGAQQEECEWDPWTCEHMGSGSATGGSGSTASSGSGSATHQEECEWDPWTCEHMGGTKNQVSLTCLVKGFYPSDIAVEWESNGQPENNYKTTPPVLDSDGSFFLYSRLTVDKSRWQEGNVFSCSVMHEALHNHYTQKSLSLSLGKGGGGSGGGGSGGGGSGGGGSEVQLVESGGGLVQPGGSLRLSCAASGFTISDYWIHWVRQAPGKGLEWVAGITPAGGYTYYADSVKGRFTISADTSKNTAYLQMNSLRAEDTAVYYCARFVFFLPYAMDYWGQGTLVTVSSGGGGSGGGGSGGGGSGGGGSDIQMTQSPSSLSASVGDRVTITCRASQDVSTAVAWYQQKPGKAPKLLIYSASFLYSGVPSRFSGSGSGTDFTLTISSLQPEDFATYYCQQGYGNPFTFGQGTKVEIK light: DIQMTQSPSFLSASVGDRVTITCKASQNVGTNVAWYQQKPGKAPKALIYSASYRYSGVPSRFSGSGSGTEFTLTISSLQPEDFATYYCQQYYSYPYTFGQGTKLEIKRTVAAPSVFIFPPSDEQLKSGTASVVCLLNNFYPREAKVQWKVDNALQSGNSQESVTEQDSKDSTYSLSSTLTLSKADYEKHKVYACEVTHQGLSSPVTKSFNRGEC | binds

Source: US20220389120A1 (GENSUN BIOPHARMA, published 2022)
